Results reported in US10206896B2, “Method of treating delayed healing of a wound associated with diabetes” (KUWAIT UNIVERSITY, priority 2014, dated 2019).

Assays:
[1] = tested on: control fibroblasts (CFs); test: BrdU incorporation into DNA (cell proliferation) in control fibroblasts; assay type: cell-based, Wistar rat; settings: 24-hr serum starved CFs, vs starved cells; dose providing the maximum response (IGF 50 ng, PDGF 1 nM, EGF 100 ng)
Description: (§1) Cell culture and HP treatment. […] Assessment of key fibroblast functions essential for wound healing. To assess cell proliferation, fibroblasts were seeded into a 96-well plate at a density of 1×10^4 per well and were allowed to adhere overnight in DMEM medium supplemented with 10% FCS. After arrest by incubation in serum-free medium for 24 hours, the cells were exposed to growth factors, and the incorporation of bromodeoxyuridine (BrdU) into DNA was determined using the manufacturer's protocol (Roche Diagnostics). Similarly, for the in vitro wound (migration) experiments, cultured fibroblasts were grown in six-well plates until they reached confluence. The medium was removed, the cells were washed with PBS 3× before culturing was continued in serum-free DMEM containing 0.5% BSA for an additional 24 hours. […] The rate of wound healing was quantified as described in the literature […] Caveolin-1 protein expression and PDGF-induced phosphorylation of Akt (20 min) and ERK (10 min) in 24-hr serum starved fibroblasts were determined using a Western-blotting-based technique. A proliferation index encompassing BrdU incorporation into DNA and cell cycle progression was evaluated in response to various growth factors (e.g., IGF, 50 ng; PDGF, 1 nM; EGF, 100 ng) in 24-hr serum starved fibroblast. […]

[2] = tested on: control fibroblasts (CFs); test: In vitro scratch wound (cell migration) in control fibroblasts; assay type: cell-based, Wistar rat; settings: 24 hrs post-injury
Description: as §1

B1: EGF: mitotic growth factor (protein, UniProt P01133 23-1207, looked up)
Pro-epidermal growth factor: PQHWSCPEGTLAGNGNSTCVGPAPFLIFSHGNSIFRIDTEGTNYEQLVVDAGVSVIMDFHYNEKRIYWVDLERQLLQRVFLNGSRQERVCNIEKNVSGMAINWINEEVIWSNQQEGIITVTDMKGNNSHILLSALKYPANVAVDPVERFIFWSSEVAGSLYRADLDGVGVKALLETSEKITAVSLDVLDKRLFWIQYNREGSNSLICSCDYDGGSVHISKHPTQHNLFAMSLFGDRIFYSTWKMKTIWIANKHTGKDMVRINLHSSFVPLGELKVVHPLAQPKAEDDTWEPEQKLCKLRKGNCSSTVCGQDLQSHLCMCAEGYALSRDRKYCEDVNECAFWNHGCTLGCKNTPGSYYCTCPVGFVLLPDGKRCHQLVSCPRNVSECSHDCVLTSEGPLCFCPEGSVLERDGKTCSGCSSPDNGGCSQLCVPLSPVSWECDCFPGYDLQLDEKSCAASGPQPFLLFANSQDIRHMHFDGTDYGTLLSQQMGMVYALDHDPVENKIYFAHTALKWIERANMDGSQRERLIEEGVDVPEGLAVDWIGRRFYWTDRGKSLIGRSDLNGKRSKIITKENISQPRGIAVHPMAKRLFWTDTGINPRIESSSLQGLGRLVIASSDLIWPSGITIDFLTDKLYWCDAKQSVIEMANLDGSKRRRLTQNDVGHPFAVAVFEDYVWFSDWAMPSVMRVNKRTGKDRVRLQGSMLKPSSLVVVHPLAKPGADPCLYQNGGCEHICKKRLGTAWCSCREGFMKASDGKTCLALDGHQLLAGGEVDLKNQVTPLDILSKTRVSEDNITESQHMLVAEIMVSDQDDCAPVGCSMYARCISEGEDATCQCLKGFAGDGKLCSDIDECEMGVPVCPPASSKCINTEGGYVCRCSEGYQGDGIHCLDIDECQLGEHSCGENASCTNTEGGYTCMCAGRLSEPGLICPDSTPPPHLREDDHHYSVRNSDSECPLSHDGYCLHDGVCMYIEALDKYACNCVVGYIGERCQYRDLKWWELRHAGHGQQQKVIVVAVCVVVLVMLLLLSLWGAHYYRTQKLLSKNPKNPYEESSRDVRSRRPADTEDGMSSCPQPWFVVIKEHQDLKNGGQPVAGEDGQAADGSMQPTSWRQEPQLCGMGTEQGCWIPVSSDKGSCPQVMERSFHMPSYGTQTLEGGVEKPHSLLSANPLWQQRALDPPHQMELTQ
modifications: Pro-epidermal growth factor
increase of proliferation rate (BrdU incorporation) [1]: ~7.1 fold | number of cells that migrated into the cell-free wound zone [2]: markedly increased
